Data from patent publication US10570431B2, “Compositions comprising a polypeptide having cellulolytic enhancing activity and a heterocyclic compound and uses thereof” (priority 2013, dated 2020).
Where two headings read alike, the source gives them in different places.

Assays:
Type in all cases: biochemical
[1] = tested on: Trichoderma reesei cellulase composition; details: for Percent conversion of milled unwashed PCS: GH61 present (0.2 mg/g cellulose); for Percent conversion of milled unwashed PCS / Enhancement of hydrolysis of milled unwashed PCS by the presence of GH61 polypeptide: no heterocyclic compound
[2] = tested on: Trichoderma reesei cellulase composition
[3] = tested on: Thielavia terrestris GH61E polypeptide; assay: Effect of ascorbic acid on T. terrestris GH61E polypeptide during hydrolysis of AVICEL; details: ascorbic acid 5 mM, T. terrestris GH61E 0.4 or 2 mg per gram cellulose, 1, 3 and 7 days
[4] = target: Trichoderma reesei GH61B polypeptide (Trichoderma reesei, UniProt Q7Z9M7); assay: Effect of ascorbic acid on T. reesei GH61B polypeptide during hydrolysis of AVICEL; details: ascorbic acid 5 mM
[5] = tested on: Penicillium pinophilum GH61A polypeptide; details: AVICEL; ascorbic acid 5 mM; P. pinophilum GH61A 0.4 or 2 mg per gram cellulose; 1, 3 and 7 days
[6] = tested on: Talaromyces stipitatus GH61A polypeptide; details: AVICEL; ascorbic acid 5 mM; T. stipitatus GH61A 0.4 or 2 mg per gram cellulose; 1, 3 and 7 days
[7] = target: Aspergillus fumigatus GH61B polypeptide (Aspergillus fumigatus, UniProt Q4WP32); assay: Effect of ascorbic acid on A. fumigatus GH61B polypeptide during hydrolysis of AVICEL; details: ascorbic acid 5 mM, A. fumigatus GH61B 0.4 or 2 mg per gram cellulose, 1, 3 and 7 days
[8] = tested on: Trichoderma reesei cellulase composition; assay: Hydrolysis of AVICEL (microcrystalline cellulose) by the T. reesei cellulase composition, with/without GH61 polypeptide or heterocyclic compound; details: GH61 polypeptide present (0.4 mg per g cellulose), no heterocyclic compound

Trichoderma reesei GH61B polypeptide, sequence (Q7Z9M7 20-249): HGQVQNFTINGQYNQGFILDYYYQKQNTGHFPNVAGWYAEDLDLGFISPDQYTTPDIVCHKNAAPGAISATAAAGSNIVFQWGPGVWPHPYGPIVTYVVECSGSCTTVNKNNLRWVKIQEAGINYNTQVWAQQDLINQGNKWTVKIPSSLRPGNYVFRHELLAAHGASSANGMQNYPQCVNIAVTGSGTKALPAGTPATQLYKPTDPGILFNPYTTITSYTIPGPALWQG
Aspergillus fumigatus GH61B polypeptide, sequence (Q4WP32 22-250): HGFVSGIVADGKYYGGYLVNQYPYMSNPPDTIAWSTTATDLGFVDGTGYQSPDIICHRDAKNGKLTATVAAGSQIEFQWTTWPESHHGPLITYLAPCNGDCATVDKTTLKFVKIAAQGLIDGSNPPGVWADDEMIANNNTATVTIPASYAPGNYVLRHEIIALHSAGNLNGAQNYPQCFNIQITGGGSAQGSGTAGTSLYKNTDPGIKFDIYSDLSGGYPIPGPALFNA

## O=C1OC(C(O)CO)C(O)=C1O (stereo not drawn) [ascorbic acid, (1,2-dihydroxyethyl)-3,4-dihydroxyfuran-2(5H)-one]
[1]; milled unwashed PCS, compound 5 mM, cellulase 2 mg per g cellulose, no GH61, 1, 3 and 7 days
  heterocyclic compound effect(no GH61): greater than 1
[2]; milled washed PCS, compound 5 mM, no GH61, 1, 3 and 7 days
  heterocyclic compound effect(no GH61): slightly decreased
[3]
  GH61 effect in the presence of heterocyclic compound: greater than 1
  heterocyclic compound effect(+GH61): increased
[4]; T. reesei GH61B 2 mg per g cellulose
  heterocyclic compound effect(+GH61): increased
[4]; T. reesei GH61B at high level (2 mg per g cellulose)
  GH61 effect in the presence of heterocyclic compound: greater than 1
[5]
  GH61 effect in the presence of heterocyclic compound: greater than 1
  heterocyclic compound effect(+GH61): increased
[6]
  GH61 effect in the presence of heterocyclic compound: greater than 1
  heterocyclic compound effect(+GH61): increased
[7]
  GH61 effect in the presence of heterocyclic compound: greater than 1
  heterocyclic compound effect(+GH61): increased

B1: T. aurantiacus GH61A polypeptide: GH61A polypeptide having cellulolytic enhancing activity (SEQ ID NO: 14), recombinantly prepared using Aspergillus oryzae JaL250 as a host (protein, listed as Thermoascus aurantiacus)
chain: MSFSKIIATAGVLASASLVAGHGFVQNIVIDGKYYGGYLVNQYPYMSNPPEVIAWSTTATDLGFVDGTGYQTPDIICHRGAKPGALTAPVSPGGTVELQWTPWPDSHHGPVINYLAPCNGDCSTVDKTQLEFFKIAESGLINDDNPPGIWASDNLIAANNSWTVTIPTTIAPGNYVLRHEIIALHSAQNQDGAQNYPQCINLQVTGGGSDNPAGTLGTALYHDTDPGILINIYQKLSSYIIPGPPLYTG
[1]; 1 day, cellulase 2 mg per g cellulose, 18.7±0.1% in the absence of GH61
  Percent conversion of milled unwashed PCS: 22.2±0.1%
[1]; 1 day
  Enhancement of hydrolysis of milled unwashed PCS by the presence of GH61 polypeptide: 19%
[1]; 3 days, cellulase 2 mg per g cellulose, 28.2±0.3% in the absence of GH61
  Percent conversion of milled unwashed PCS: 34.3±0.3%
[1]; 3 days
  Enhancement of hydrolysis of milled unwashed PCS by the presence of GH61 polypeptide: 21%
[1]; 7 days, cellulase 2 mg per g cellulose, 36.9±0.3% in the absence of GH61
  Percent conversion of milled unwashed PCS: 44.0±0.2%
[1]; 7 days
  Enhancement of hydrolysis of milled unwashed PCS by the presence of GH61 polypeptide: 19%
[2]; 1 day, no heterocyclic compound
  Enhancement of hydrolysis of milled washed PCS by the presence of GH61 polypeptide: 14%
[2]; 3 days, no heterocyclic compound
  Enhancement of hydrolysis of milled washed PCS by the presence of GH61 polypeptide: 31%
[2]; 7 days, no heterocyclic compound
  Enhancement of hydrolysis of milled washed PCS by the presence of GH61 polypeptide: 31%
[2]; day 1, GH61 present (0.4 mg per g cellulose), cellulase 4 mg per g cellulose, no heterocyclic compound, 37±1% in the absence of GH61
  Percent conversion of milled washed PCS: 42±1%
[2]; day 1, cellulase 2 mg per g cellulose, GH61 at 10% (w/w) of the cellulase composition, 24±0.7% in the absence of GH61
  Percent conversion of milled washed PCS: 27±0.8%
[2]; day 1, cellulase 2 mg per g cellulose, GH61 at 25% (w/w) of the cellulase composition, 24±0.7% in the absence of GH61
  Percent conversion of milled washed PCS: 27±0.8%
[2]; day 1, cellulase 2 mg per g cellulose, GH61 at 50% (w/w) of the cellulase composition, 24±0.7% in the absence of GH61
  Percent conversion of milled washed PCS: 27±0.8%
[2]; day 3, GH61 present (0.4 mg per g cellulose), cellulase 4 mg per g cellulose, no heterocyclic compound, 55±1% in the absence of GH61
  Percent conversion of milled washed PCS: 72±1%
[2]; day 3, cellulase 2 mg per g cellulose, GH61 at 10% (w/w) of the cellulase composition, 41±2% in the absence of GH61
  Percent conversion of milled washed PCS: 55±3%
[2]; day 3, cellulase 2 mg per g cellulose, GH61 at 25% (w/w) of the cellulase composition, 41±2% in the absence of GH61
  Percent conversion of milled washed PCS: 57±0.5%
[2]; day 3, cellulase 2 mg per g cellulose, GH61 at 50% (w/w) of the cellulase composition, 41±2% in the absence of GH61
  Percent conversion of milled washed PCS: 59±2%
[2]; day 7, GH61 present (0.4 mg per g cellulose), cellulase 4 mg per g cellulose, no heterocyclic compound, 67±0.2% in the absence of GH61
  Percent conversion of milled washed PCS: 88±2%
[8]; 1 day, 16±1% in the absence of GH61
  Percent conversion of AVICEL: 16±1%
[8]; 3 days, 31±4% in the absence of GH61
  Percent conversion of AVICEL: 30±4%
[8]; 7 days, 45±3% in the absence of GH61
  Percent conversion of AVICEL: 45±4%
